Here are results for one substance from US20200353049A1.

Assay [1] concerns the target IL-22R1a extracellular domain (ECD) (UniProt Q8N6P7). Kind of assay: binding ELISA on plate-coated IL-22R1a ECD, relative to Reference Standard (100%); stored -20 C, 12 months.
For assay [2] the target is unchanged. Kind of assay: potency assay (binding ELISA on plate-coated IL-22R1a ECD), relative to reference standard; 40 C stress, day 5. For orientation: An ELISA detects its analyte on a solid surface through an enzyme-linked reagent.
Assay [3] shares this target. Kind of assay: potency assay (binding ELISA on plate-coated IL-22R1a ECD), relative to reference standard (100%); stored 5 C, 36 months.
The target is the same in assay [4]. Kind of assay: binding ELISA on plate-coated IL-22R1a ECD, relative to Reference Standard (100%); stored -20 C, 24 months.
Assay [5] shares this target. Kind of assay: potency assay (binding ELISA on plate-coated IL-22R1a ECD), relative to reference standard (100%); stored 5 C, 48 months.
The target is the same in assay [6]. Kind of assay: binding ELISA on plate-coated IL-22R1a ECD, relative to Reference Standard (100%); stored -20 C, 48 months.

UniProt Q8N6P7, sequence (Q8N6P7 16-228 limits assumed): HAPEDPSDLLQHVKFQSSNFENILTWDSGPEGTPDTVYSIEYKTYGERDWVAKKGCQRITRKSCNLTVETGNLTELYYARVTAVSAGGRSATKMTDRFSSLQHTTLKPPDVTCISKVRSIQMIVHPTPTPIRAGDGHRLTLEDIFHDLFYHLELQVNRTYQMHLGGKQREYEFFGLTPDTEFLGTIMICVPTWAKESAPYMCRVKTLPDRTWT

On to IL-22 Fc fusion protein, for which the results for the Potency by Binding Assay (% relative potency) (% relative potency) in assay [1], in assay [4] and in assay [6] were 69, 70 and 93, respectively. Moreover, the Potency (% relative potency) (% relative potency) in assay [2] worked out at 80; in assay [3], 67; in assay [5] it was 65.
